Biological target: T1, SurR (Pyrococcus furiosus, UniProt Q8U4J2 1-232)
T1 sequence: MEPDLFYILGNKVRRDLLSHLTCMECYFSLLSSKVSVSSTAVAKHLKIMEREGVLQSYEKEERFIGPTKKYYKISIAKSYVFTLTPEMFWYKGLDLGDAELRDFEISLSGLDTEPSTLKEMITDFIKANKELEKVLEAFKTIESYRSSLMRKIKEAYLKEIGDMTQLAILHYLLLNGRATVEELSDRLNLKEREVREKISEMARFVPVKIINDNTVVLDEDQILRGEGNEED
Experiment: EMSA

B1: SELEX-derived 40-bp probe GTTcacAAC (dsDNA)
DNA 1: GCTTCATCCGTGACGTTCACAACCAAATAGATTGAGGATC
DNA 2: GATCCTCAATCTATTTGGTTGTGAACGTCACGGATGAAGC
binding result: binds

From paper PMC2745277
